For one molecule, Kd results are on record in publication PMC11602552 (The Journal of Experimental Medicine, 2024).

The experiment has as its target wild type eIF6 (eIF6^WT), purified (UniProt O55135 1-245). Nature of the experiment: SPR. A general note: In SPR one partner is held on a chip, and binding of the other changes the refractive index at the surface.

B1: Nsun2, purified (enzyme)
chain: MGRRARGRRFQQPPQPEGEEDASDGGRKRGQAGWEGGYPEIVKENKLFEHYYQELKIVPEGEWDQFMESLREPLPATLRITGYKSHAKEILHCLKNKYFKELEDLEVDGQKVEVPQPLSWYPEELAWHTNLSRKILRKSPLLAKFHQFLVSETESGNISRQEAVSMIPPLLLNVEPHHKILDMCAAPGSKTTQLIEMLHADMSVPFPEGFVIANDVDNKRCYLLVHQAKRLSSPCIMVVNHDASSIPRLTVDVDGRKEILFYDRILCDVPCSGDGTMRKNIDVWKKWTTLNSLQLHGLQLRIATRGAEQLAEGGRMVYSTCSLNPVEDEAVIAALLEKSEGALELADVSAELPGLKWMPGVSQWKVMTRDGQWFADWHEVPQGRHTQIRPTMFPPTDLEKLQAMHLERCLRILPHHQNTGGFFVAVLVKKAPMPWNKRQPKVQNKSAEAREPRVSSHVAATEGNPSDQSELESQMITGAGDSETAHNTENTESNEKKDGVCGPPPSKKMKLFGFKEDPFVFIPEDDPLFPPIEKFYALDPSFPRMNLLTRTTEGKKRQLYMVSKELRNVLLNNSEKMKVINTGIKVWCRNNSGEEFDCAFRLAQEGIYTLYPFINSRIITVSMEDVKTLLTQENPFFRKLSSEAYSQVKDLAKGSVVLKYEPDSANPDTLQCPIVLCGWRGKASIRTFVPKNERLHYLRMMGLEVLGEKKKEGVILTNENAASPEQPGDEDAKQTAQDPCVPDSVPGCDAAAAEPSR
For the molecule B1, the Kd (as a rule, the free concentration of one partner at which half of the binding sites on the other are occupied at equilibrium, for simple one-to-one binding) is 1470 nM.
